US6410248

Columns and labels:
[1] = system: TATA box-selected zinc finger protein (Zif268 variant, boxed clone FIG. 3A) (artificial); experiment: EMSA; conditions: same buffer, 5 mM MgCl2, 20 uM ZnSO4, pH 7.9
[2] = system: NRE-selected zinc finger protein (Zif268 variant, boxed clone FIG. 3C) (artificial); experiment: EMSA; conditions: same buffer, 5 mM MgCl2, 20 uM ZnSO4, pH 7.9
[3] = system: p53 site-selected zinc finger protein (Zif268 variant, boxed clone FIG. 3B) (artificial); experiment: EMSA; conditions: same buffer, 5 mM MgCl2, 20 uM ZnSO4, pH 7.9
[4] = system: NRE-selected zinc finger protein (Zif268 variant, boxed clone FIG. 3C) (artificial); experiment: competition; conditions: nonspecific over specific dissociation constant ratio; calf thymus competitor in EMSA
[5] = biological target: Zif268 zinc fingers 1-3 (wild type) (UniProt P08046); experiment: competition; conditions: nonspecific over specific dissociation constant ratio; calf thymus competitor in EMSA
[6] = system: TATA box-selected zinc finger protein (Zif268 variant, boxed clone FIG. 3A) (artificial); experiment: competition; conditions: nonspecific over specific dissociation constant ratio; calf thymus competitor in EMSA
[7] = system: p53 site-selected zinc finger protein (Zif268 variant, boxed clone FIG. 3B) (artificial); experiment: competition; conditions: nonspecific over specific dissociation constant ratio; calf thymus competitor in EMSA

## AGGGGGGCTATAAAAGGGGGT (double strand) [TATA box site]
[1]
  Kd: 0.12 nM

## GCCGTCAAGGGTTCAGTGGGG (double strand) [NRE site]
[2]
  Kd: 0.038 nM

## GCTGTTGGGACATGTTCGTGA (double strand) [p53 binding site]
[3]
  Kd: 0.11 nM

## calf thymus DNA
[4]
  DNA-binding specificity ratio (nonspecific Kd / specific Kd) (fold (Kdns/Kd)): 36000
[5]
  binding signal (fold (Kdns/Kd)): 31000
[6]
  DNA-binding specificity ratio (nonspecific Kd / specific Kd) (fold (Kdns/Kd)): 25000
[7]
  DNA-binding specificity ratio (nonspecific Kd / specific Kd) (fold (Kdns/Kd)): 54000
